The values below are quoted from earlier work in publication PMC5727865.

In general, Kd refers to a measure of binding affinity in units of concentration.

This data set addresses gp120 gp120 (Human immunodeficiency virus 1) (UniProt O70902).
Sequence of UniProt O70902 (O70902 29-500): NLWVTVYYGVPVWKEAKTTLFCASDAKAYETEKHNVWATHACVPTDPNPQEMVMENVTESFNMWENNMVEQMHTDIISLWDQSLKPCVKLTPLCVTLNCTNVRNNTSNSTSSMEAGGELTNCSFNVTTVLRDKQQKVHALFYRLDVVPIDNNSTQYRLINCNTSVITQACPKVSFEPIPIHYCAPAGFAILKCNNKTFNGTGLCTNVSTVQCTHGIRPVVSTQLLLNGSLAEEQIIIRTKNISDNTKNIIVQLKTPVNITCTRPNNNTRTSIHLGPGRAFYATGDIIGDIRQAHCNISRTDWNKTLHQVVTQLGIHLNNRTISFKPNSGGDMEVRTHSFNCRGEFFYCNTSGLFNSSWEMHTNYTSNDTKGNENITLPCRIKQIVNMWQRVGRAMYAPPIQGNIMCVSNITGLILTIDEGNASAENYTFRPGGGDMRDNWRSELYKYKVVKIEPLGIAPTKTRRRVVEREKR

As to DC-SIGN (from UniProt Q9NNX6), the Kd is 1.7 nM.
